From paper PMC9406194 come the findings set out here.

One data set concerns trypsin. Nature of the data set: 2DPC hydrogel aptasensor (Debye ring). The conditions noted are these: DNA-H1-960, 500 uM protein; same limit as blank; 5'-NH2-(CH2)6 and 3'-(CH2)6-NH2; amide-linked to hydrogel carboxyl groups; 10 mM phosphate-buffered saline, pH 7.40 (one test at pH 5.00), 1 h immersion; temperature of the binding assay not stated.
A further data set has as its system hemoglobin. As to the kind of experiment: 2DPC hydrogel aptasensor (Debye ring). The conditions noted are these: DNA-H1-960, 500 uM protein; same limit as blank; 5'-NH2-(CH2)6 and 3'-(CH2)6-NH2; amide-linked to hydrogel carboxyl groups; 10 mM phosphate-buffered saline, pH 7.40 (one test at pH 5.00), 1 h immersion; temperature of the binding assay not stated.

In the case of “ATCTACGAATTCATCAGGGCTAAAGAGTGCAGAGTTACTTAG [lysozyme-binding aptamer]”, the binding signal (nm particle spacing decrease) in the data set on trypsin and in the data set on hemoglobin was less than 12.7 each time.
